Data on one molecule can be found in patent KR20210116113A.

In experiment [1] the target is T1, c-Myc 펩타이드 (…).
T1 sequence (peptide): MPLNVSFTSRNYDLD
The experiment can be described thus: ELISA, c-Myc peptide coated at 2 ug/ml, scFv at 2 ug/ml (replicate), anti-HA peroxidase detection.

Experiment [2] concerns the target T1, c-Myc 펩타이드 (…). The experiment can be described thus: ELISA, c-Myc peptide coated at 2 ug/ml, scFv at 0.5 ug/ml (replicate), anti-HA peroxidase detection.
In experiment [3] the target is T1, c-Myc 펩타이드 (…). The experiment can be described thus: ELISA, c-Myc peptide coated at 2 ug/ml, scFv at 0.5 ug/ml, anti-HA peroxidase detection.
For experiment [4], the target named is T1, c-Myc 펩타이드 (…). The experiment can be described thus: ELISA, c-Myc peptide coated at 2 ug/ml, scFv at 4 ug/ml, anti-HA peroxidase detection.
Experiment [5] concerns the target T1, c-Myc 펩타이드 (…). The experiment can be described thus: ELISA, c-Myc peptide coated at 2 ug/ml, scFv at 1 ug/ml, anti-HA peroxidase detection.
The target of experiment [6] is T1, c-Myc 펩타이드 (…). The experiment can be described thus: ELISA, c-Myc peptide coated at 2 ug/ml, scFv at 1 ug/ml (replicate), anti-HA peroxidase detection.
Experiment [7] has as its target T1, c-Myc 펩타이드 (…). The experiment can be described thus: ELISA, c-Myc peptide coated at 2 ug/ml, scFv at 2 ug/ml, anti-HA peroxidase detection.
Experiment [8] has as its target T1, c-Myc 펩타이드 (…). Put plainly: ELISA, c-Myc peptide coated at 2 ug/ml, scFv at 4 ug/ml (replicate), anti-HA peroxidase detection.

B1: clone 1D1 항체 (scFv, anti-c-Myc-tag 1D1) (scFv)
scFv: LTQPSSVSANLGETQDHCSGGGSNSAYGWFQQKSPGSAPVTLIYDNTNRPSNIPSRFSGSKSGSTATLTITGVQADDEAVYYCGSAGSSYVGIFGAGTTLTVLGQSSRSSSGGGSSGGGGSAVTLDESGGGLQTPGGGLSLVCKGSGFTFSSYQMNWIRQAPGKGLEFVAAINRFGNRTGYGAAVKGRATISRGDGQSTVRLQLNNLRAEDTATYYCAKAAYGYCGSGGWRDVAGTDAWGHGTEVIVSSTS
Turning to B1, the absorbance at 450 nm (antigen(peptide) coating) in experiment [1] came out at 1.3 OD 450nm; in experiment [2] it was 0.431 OD 450nm; in experiment [3], 0.415 OD 450nm; in experiment [4], 2.15 OD 450nm; in experiment [5] it was 0.808 OD 450nm; in experiment [6], 0.788 OD 450nm. Besides, the absorbance at 450 nm (antigen(peptide) coating) was determined as 1.31 OD 450nm in experiment [7] and 2.17 OD 450nm in experiment [8]. Also, the delta (absorbance at 450 nm minus background control) in experiment [1] was 1.25 OD 450nm; in experiment [2], 0.379 OD 450nm; in experiment [3], 0.363 OD 450nm; in experiment [4], 2.1 OD 450nm; in experiment [5] it was 0.756 OD 450nm; in experiment [6], 0.735 OD 450nm. Also, the delta (absorbance at 450 nm minus background control) in experiment [7] was 1.26 OD 450nm; in experiment [8], 2.11 OD 450nm.
